Assay results reported in patent US20190010233A1 (JIANGSU HYAMAB PHARMACEUTICAL, published 2019).

T1: hPD-L2 (human, UniProt Q9BQ51 20-219, limits assumed)
T1 construct: Bought protein
T1 sequence (looked up): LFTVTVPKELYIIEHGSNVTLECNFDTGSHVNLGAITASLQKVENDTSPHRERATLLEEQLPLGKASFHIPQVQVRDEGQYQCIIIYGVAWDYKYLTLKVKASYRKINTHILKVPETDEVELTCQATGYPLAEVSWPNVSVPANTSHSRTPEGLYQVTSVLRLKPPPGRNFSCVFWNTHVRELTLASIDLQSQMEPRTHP


Experiments:
[1] = molecular target: T2, full length cyno PD-L1 on cells (cyno, UniProt G7PSE7 19-290); assay: FACS CHO-K1-cPD-L1, 0.001 nM mAb
T2 construct: also called CHO-K1-cPD-L1
Experimental: (§1) Other CHO-K1 were stably transfected with a pIRES plasmid containing the nucleic acid sequence encoding full length cyno PD-L1 to generate CHO-K1 cells stably expressing cyno PD-L1 (herein referred to as CHO-K1-cPD-L1 cells). […] The culture media was aspirated, and the cells were washed twice with HBSS (Hanks Balanced Salt Solution, Invitrogen). The cells were treated with enzyme-free cell dissociation solution (Versene solution, Invitrogen) and collected. The cells were then washed twice with HBSS, cell counts were determined, and cells were resuspended with HBSS at 2×10⁶ cells/mL. Goat serum was added to the cell suspension to a final concentration of 1%, and the cells were blocked for 30 minutes on ice and then washed twice with HBSS. The cells were collected after centrifugation and resuspended in FACS buffer (HBSS+1% BSA, v/v) at 2×10⁶ cells/mL. 100 μL of the cell suspension were then added to each well of 96-well plate. 100 μL of purified anti-PD-L1 antibodies from Example 2 were added to each well of the 96-well plate and incubated for 2 hours on ice. […] The samples were washed three times with FACS buffer, and 100 μL fixation buffer (4% paraformaldehyde v/v) were added to each well and incubated for 10 minutes. The cells were then washed twice with FACS buffer and resuspended in 100 μL FACS buffer. The mean fluorescence intensity (MFI) was determined using FACS Calibur (BD), and the results are shown in FIGS. 7-8 and in Tables 10-11.

[2] = molecular target: T2, full length cyno PD-L1 on cells; assay: FACS CHO-K1-cPD-L1, 1 nM mAb
Experimental: as §1

[3] = molecular target: T3, full length human PD-L1 on cells (human, UniProt Q9NZQ7 19-290); assay: FACS CHO-K1-hPD-L1, 1 nM mAb
T3 construct: Also used as the target of the cell-based functional assays (transfected stimulator cells; PD-L1 of the cells in the mixed lymphocyte reaction); also called CHO-K1-hPD-L1; CHOK1-hPD-L1

[4] = molecular target: T4, human PD-L1^ECD-hFc protein (human, UniProt Q9NZQ7 19-239, biotinylated in the PD-1 binding ELISA (Table 3) and in the Octet assay (Table 12)); assay: ELISA, 0.0001 nM mAb
T4 construct: The plain and the biotinylated protein are kept as one molecule; also called PD-L1-hFc; Immunogen A; not shown: human IgG Fc fragment (hFc)
Experimental: (§2) 100 μL of the diluted recombinant proteins were added to each well of 96-well plate. The plates were sealed with plastic film and incubated at 4° C. overnight. The plates were washed twice with wash buffer (PBS+0.01% (v/v) Tween20), and incubated with blocking buffer (PBS+0.01% (v/v) Tween20+1% (w/w) BSA) at room temperature for 2 hours. The blocking buffer was aspirated away, and 100 μL of purified anti-PD-L1 antibodies were added to each well and incubated for 2 hours at 37° C. The plates were washed three times with wash buffer (PBS+0.01% (v/v) Tween20). HRP-conjugated secondary antibody (Sigma) was added to each well and incubated for 2 hours at 37° C. After the plates were washed three times with wash buffer, 100 μL TMB substrate were added to each well, and the plates were incubated for 30 minutes at room temperature. 100 μL stop solution (0.1N HCl) was added to each well to stop the reaction.

[5] = molecular target: T5, cyno PD-L1^ECD-hFc protein (cyno, UniProt G7PSE7 19-239); assay: ELISA, 3.333 nM mAb
T5 construct: also called Cyno Monkey PD-L1^ECD-hFc
Experimental: as §2

[6] = molecular target: T4, human PD-L1^ECD-hFc protein; assay: ELISA, 3.333 nM mAb
Experimental: as §2

[7] = molecular target: T2, full length cyno PD-L1 on cells; assay: FACS CHO-K1-cPD-L1, 11.11 nM mAb
Experimental: as §1

[8] = molecular target: T3, full length human PD-L1 on cells; assay: FACS CHO-K1-hPD-L1, 1.23 nM mAb
[9] = molecular target: T5, cyno PD-L1^ECD-hFc protein; assay: ELISA, 0.370 nM mAb
Experimental: as §2

[10] = molecular target: T4, human PD-L1^ECD-hFc protein; assay: ELISA, 0.370 nM mAb
Experimental: as §2

[11] = molecular target: T4, human PD-L1^ECD-hFc protein; assay: ELISA, mAb concentration not given
Experimental: as §2

[12] = molecular target: T1, hPD-L2; assay: ELISA, mAb concentration not given
Experimental: as §2

T4 sequence (Q9NZQ7 19-239): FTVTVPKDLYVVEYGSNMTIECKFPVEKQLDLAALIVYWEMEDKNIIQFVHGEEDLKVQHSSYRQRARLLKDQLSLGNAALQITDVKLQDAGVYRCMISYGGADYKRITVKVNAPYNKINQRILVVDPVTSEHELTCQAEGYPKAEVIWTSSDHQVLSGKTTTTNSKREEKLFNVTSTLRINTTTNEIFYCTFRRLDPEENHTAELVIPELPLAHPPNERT
T5 sequence (G7PSE7 entry or part of it limits assumed): as the sequence (Q9NZQ7 19-239) above, with A33T, A34S, S62N, R68Q, Q82R, F173L, T185A, T192I, H215L counted along it
T2 sequence (G7PSE7 entry or part of it limits assumed): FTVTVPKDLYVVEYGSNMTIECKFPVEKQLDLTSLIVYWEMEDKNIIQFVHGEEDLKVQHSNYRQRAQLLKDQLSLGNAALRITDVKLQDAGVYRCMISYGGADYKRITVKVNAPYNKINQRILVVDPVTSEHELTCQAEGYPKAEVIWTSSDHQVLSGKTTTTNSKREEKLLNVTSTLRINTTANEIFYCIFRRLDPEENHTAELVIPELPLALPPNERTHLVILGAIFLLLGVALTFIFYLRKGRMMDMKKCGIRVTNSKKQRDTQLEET
T3 sequence (Q9NZQ7 19-290 limits assumed): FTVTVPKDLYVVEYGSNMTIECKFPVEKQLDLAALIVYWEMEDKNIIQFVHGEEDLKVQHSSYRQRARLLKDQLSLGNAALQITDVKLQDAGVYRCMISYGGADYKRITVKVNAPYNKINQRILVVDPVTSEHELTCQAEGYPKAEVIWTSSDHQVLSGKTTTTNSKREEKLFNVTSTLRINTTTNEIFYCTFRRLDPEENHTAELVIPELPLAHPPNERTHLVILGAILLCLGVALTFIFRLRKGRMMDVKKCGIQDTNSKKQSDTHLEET

Mean fluorescence intensity [1]	Mean fluorescence intensity [2]	Mean fluorescence intensity [3]	OD450 nm [4]	OD450 nm [5]	OD450 nm [6]	Mean fluorescence intensity [7]	Mean fluorescence intensity [8]	OD450 nm [9]	OD450 nm [10]	OD450 nm [11]	OD450 nm [12]	Binder
1.93	77.2	97.6	0.21	–	–	–	–	–	–	–	–	chimeric anti-PD-L1 antibody 192D9E7 (antibody, V domains shown, Purified from hybridoma of Harbour H2L2 mice: human variable regions, rat constant regions) VH: EVQLVESGGGLVQPGGSLRLSCAASGFTFSSYWMSWVRQAPGKGLEWVADIKQDGSEKYYVDSVKGRFTISRDNAKNSLYLQMNSLRAEDTAVYYCTRDKPHWGGVMDAWGQGTSVTVSS VL: not shown
–	–	–	–	2.03	2.03	136	106	1.29	1.29	2.75	0.156	chimeric anti-PD-L1 antibody 73D3G2 (antibody, V domains shown, Purified from hybridoma of Harbour H2L2 mice: human variable regions, rat constant regions) VH: EVQLVESGGGLVQPGGSLRLSCAASGFTFNTYWMNWVRQAPGRGLEWVANIKQDGGEKYYVDSVKGRFTISRDNAKNSLYLQMNSLRAEDTAMYYCARDGRSWYPDAFDIWGQGTVVTVSS VL: DIQMTQSPSTLSASVGDRVTITCRASQSISTWLAWYQQKLGKAPKLLIYEVSILESGVPSRFSGSGSGTEFTLTISSLQPDDFATYYCQQYHSFSSFGGGTRVEIK

The remaining lines, values behind:

Binder	Mean fluorescence intensity [1]	Mean fluorescence intensity [2]	Mean fluorescence intensity [3]	OD450 nm [4]	OD450 nm [5]	OD450 nm [6]	Mean fluorescence intensity [7]	Mean fluorescence intensity [8]	OD450 nm [9]	OD450 nm [10]	OD450 nm [11]	OD450 nm [12]
chimeric anti-PD-L1 antibody 105C5D7 (antibody, V domains shown, Purified from hybridoma of Harbour H2L2 mice: human variable regions, rat constant regions) VH: EVQLVESGGGLVQPGGSLRLSCAASGFTFSSYWMSWVRQAPGKGLEWVANIKQDGNEKYYVDSVKGRFTISRDNAKNSLYLQMNSLRAEDTAVYYCARNIKWGDAFDIWGQGTMVTVSS VL: DIQMTQSPSSLSASVGDRVTITCRASQSISSYLNWYQQKPGKAPKLLIYAASSLQSGVPSRFSGSGSGTDFTLTISSLQPEDFAIYSCQQSYSIPLTFGGGTKVEIK	–	–	–	–	1.5	1.5	136	206	1.19	1.19	2.64	0.214
chimeric anti-PD-L1 antibody 127D2F3 (antibody, V domains shown, Purified from hybridoma of Harbour H2L2 mice: human variable regions, rat constant regions) VH: EVQLVESGGGLVQPGGSLRLSCVASGFTFSSYWMSWVRQAPGKGLEWVANIKQDGSEKYYVDSVKGRLTISRDNAKNSLYLQMKSLRAEDTAVYYCARDPIYSSYFDYWGQGILVTVSS VL: DIQMTQSPSSLSASVGDRVTITCRASQSISNYLNWYQQKPGKAPKLLIYAASSLQSGVPSRFSGSGSGTDFTLTISSLQPEDFAAYYCQQSYGIPFTFGPGTKVDIK	1.91	80.5	88.5	0.2	–	–	–	–	–	–	–	–
chimeric anti-PD-L1 antibody 78A11F6 (antibody, V domains shown, Purified from hybridoma of Harbour H2L2 mice: human variable regions, rat constant regions) VH: EVQLVESGGGLVQPGGSLRLSCAASGITFSSYWMSWVRQTPGKGLEWVANIKQDGSEKYYVKSVKGRFTISRDNAKNSLYLQMNSLRAEDTAVYYCVRDRAVPGTGAFDIWGQGTMVIVSS VL: DIQMTQSPSTLSASVGDRVTITCRASQSISNWLAWYQQKPGKAPKLLIYKASSLESGVPSRFSGSGSGTEFTLTISSLQPDDFATYYCQQYDSSLFTFGQGTKLEIK	–	–	–	–	2	1.73	142	174	1.5	1.39	2.71	0.205
chimeric anti-PD-L1 antibody 73G11B3 (antibody, V domains shown, Purified from hybridoma of Harbour H2L2 mice: human variable regions, rat constant regions) VH: EVQLVESGGGLVQPGGSLRLSCVVSGFTFSSYWMSWVRQTPGKGLEWVANIKQDGSEKYYVDSVKGRLTISRDNAKNSLYLQMNSLRAEDTAVYYCVRDRAVPGTGALDIWGQGTMVTVSS VL: not shown	2.02	94.9	107	0.2	–	–	–	–	–	–	–	–
